# Experimental data taken from the DeepSol protein solubility set.
# Test: soluble on expression in E. coli; label from the status in PepcDB or PDB records
row,Sequence,soluble on expression in E. coli
1,MNKFIQSLPKVELHLHIEGTLEPELMLELAQRNSINIPFNSVEEIRDAYNFHNLQSFLDIYFQGADVLVHEQDFFDLTWAYLLRCQEDNVLHTEIFFDPQAHTERGILFDTVVNGIDRALNKGVSELGITSKLIMCFLRHLDEESAFKTLTQAQAHKDKIIGVGLDSTEIGNPANKFERVFKQAIEQGFLTVAHAGEEGPADNISEALSLLKITRIDHGVRCSEDASLVKQLVSERIPLTVCPLSNIKLKVFDRMEQHNIVTLLRQGVCVTINSDDPAYFGGYMTDNFVAVNNAHPMNKAEIAQFTFNAIEASFVSPSEQERLRQVTQKYIALHQE,not soluble
2,SPQRKVANNKQNIEYNDDNHVHHMHSHNPPIDCAILLPSKPRFIFQDVTVFNFNVSGNPSDLNTPVVQFNLSFRNPNANIRIYYDTLDVYAFYGNGSQQIIIPTPMPSTYQGHKEDSVWSPYIPVVPYNALYLDDQHHSRDGNMLMLHLDGRISWLLLGN,soluble
3,NIYDVAHDLDKGIRETPEFISLQDAYREVNENADAKAKFERFRDVQVTIQEKQMTGQEIDDETVNVAQQVAQEVQENELIVKLMEKEQAMSTIINDLNRIIMTPLQDLYNVA,not soluble
4,MRRSGNYNPSRWDVNFIQSLLSDYKEDKHVIRASELVTLVKMELEKETDQIRQLELIDDLQRMGLSDHFQNEFKEILSSIYLDHHYYKNPFPKEERDLYSTSLAFRLLREHGFQVAQEVFDSFKNEEGEFKESLSDDTRGLLQLYEASFLLTEGETTLESAREFATKFLEEKVNEGGVDGDLLTRIAYSLDIPLHWRIKRPNAPVWIEWYRKRPDMNPVVLELAILDLNIVQAQFQEELKESFRWWRNTGFVEKLPFARDRLVECYFWNTGIIEPRQHASARIMMGKVNALITVIDDIYDVYGTLEELEQFTDLIRRWDINSIDQLPDYMQLCFLALNNFVDDTSYDVMKEKGVNVIPYLRQSWVDLADKYMVEARWFYGGHKPSLEEYLENSWQSISGPCMLTHIFFRVTDSFTKETVDSLYKYHDLVRWSSFVLRLADDLGTSVEEVSRGDVPKSLQCYMSDYNASEAEARKHVKWLIAEVWKKMNAERVSKDSPFGKDFIGCAVDLGRMAQLMYHNGDGHGTQHPIIHQQMTRTLFEPFA,soluble
5,MGLQTYNAKRSFDKTPEPKGTKAEKPGSSFVIQKHDARRLHYDFRLEMDGVLKSWAVTRGPSLDPEDKRLAVHVEDHPLSYGDFEGVIPKGQYGGGTVIVWDRGIWQPIGDAGKGYRKGHLEFELEGEKLKGRWHLVRMHGKPGESRENWLLIKGDDEEARHLEHHHHHH,soluble
6,KKVIIIINPTSGGEAALDYKESLESKAKEYFDHVETKITQRAKDATHFAQNASEEKYDAVIVFGGDGTVNEVISGISEKNHIPKLGIIPGRTGNLITKLLEIN,not soluble
7,GSFTMDDISPSELKTILHSKRANLYYLQHCRVLVNGGRVEYVTDEGRHSHYWNIPIANTTSLLLGTGTSITQAAMRELARAGVLVGFCGGGGTPLFSANEVDVEVSWLTPQSEYRPTEYLQRWVGFWFDEEKRLVAARHFQRARLERIRHSWLEDRVLRDAGFAVDATALAVAVEDSARALEQAPNHEHLLTEEARLSKRLFKLAAQATRYGEFVRAKRGSGGDPANRFLDHGNYLAYGLAATATWVLGIPHGLAVLHGKTRRGGLVFDVADLIKDSLILPQAFLSAMRGDEEQDFRQACLDNLSRAQALDFMIDTLKDVAQRSTVSA,soluble
8,MGSDKIHHHHHHMKKQPSATVNQEKESELIEGLMSNDDLAYETLVRQYSAKMYAVARRFFCTNDDAQECLQKAFIQVFKNITSFKQNSNLSTWLHRITVNEALMMLRQRKRQNTTSLEEFAQHYNEYGERTVFADNLGNNLNNNLGTILGGNVETLFEKTETKLSLNDIIFQLPEKYCNVLLLRDIQEISTKETAEILAISESLVKTQLHRARLLLKAILEQDDKDNLESNWKVNSHVND,not soluble
9,MAADRNTGHTEEDKLDVLKSTQTVIHKALEKLGYPEEVYELLKEPMRLLTVKIPVRMDDGSVKIFTGYRAHNDSVGPTKGGIRFHPNVTEKEVKALSIWMSLKCGIIDLPYGGGKGGIVCDPRDMSFRELERLSRGYVRAISQIVGPTKDVPAPDVFTNSQIMAWMMDEYSRIDEFNSPGFITGKPLVLGGSHGRESATAKGVTICIKEAAKKRGIDIKGARVVVQGFGNAGSYLAKFMHDAGAKVVGISDAYGGLYDPEGLDIDYLLDRRDSFGTVTKLFNDTITNQELLELDCDILVPAAIENQITEENAHNIRAKIVVEAANGPTTLEGTKILSDRDILLVPDVLASAGGVTVSYFEWVQNNQGFYWSEEEVEEKLEKMMVKSFNNIYEMANNRRIDMRLAAYMVGVRKMAEASRFRGWI,soluble
10,MLVRLGYVAMSVHLKNASPSQTMTYAQFQKLDDRDAAIRKLERIANSNLENCLRLLKHNKGHDISFFRLSSKLIPLANHEELLEWNYIRPLKENLKKLGEYAVHMNMRIDFHPDHFVVLNSPEESVFKQSVKTLQMHKKLLKGMGIEHKQRCVLHVGGGYKDKELALERFIENWSNVPRGIQEMIILENDDTTFTLEETLYLGEKLDIPVVFDLHHHMMNNEQEDWYEDWARVVHTWETSLLPIKMHISSPREGKDPRAHADYINVDAFLSFLRRIKGSVPQIDCMIEAKMKDESLFQLMRDLSEQVDVEIIDGASFYIK,not soluble
11,MSLNIPLSGIIPPLVTPLLDDDVLDVEGLQRLIEHLIAGGVHALFVLGTTGESQSLSYKLRMEMIKNTCRIAKGRLPVLVCISDTSIVESVNLACLAADHGADAVVSAPPYYFATGQPELIEFYEHLLPQLPLPLFLYNMPTHTKVNFAPATIQRIAENPGVIGFKDSSANTVYFQSVMYAMKDNPDFSMLVGPEEIMAESVLLGAHGGVNGGANMFPELYVSLYNAAKNADMEEVRRLQEKVMQISATIYTVGQHGSSYLKGLKCALSLLGICSDYVAAPFHKFEQRERGKIWKALQNLGVDEGHHHHHH,soluble
12,MIVLGIESSCDETGVGIIDLADDGTMTIVGDAVASSMEQHARFGGVVPEIASRAHLESMIPVMKEALAQAGVERPDAVAATVGPGLAGALLVGASAAKAYAAAWGVPFYGVNHLGGHVAVANLEGEELPHSIALLVSGGHTQILEVQAVGKPMRELGSTLDDAAGEAYDKVARLLGLGYPGGPVVDKLAARGNRKAIRFPRGLSRADDLRGEHRYDFSFSGVKTSVARYVESAEREGRVISVEDVCASFQEAVVDVLTSKAIMACKDTGASVLLLGGGVAANSRLRELAAARCQSASIELRVPSFKLCTDNGVMIAAVASQLIHEGAQPSGLSVGTDTSLEVEIPLVHSL,not soluble
13,SHMTPDIILQRTGIDVRAVEQGDDAWHKLRLGVITASEVHNVIAKPRSGKKWPDMKMSYFHTLLAEVCTGVAPEVNAKALAWGKQYENDARTLFEFTSGVNVTESPIIYRDESMRTACSPDGLCSDGNGLELKCPFTSRDFMKFRLGGFEAIKSAYMAQVQYSMWVTRKNAWYFANYDPRMKREGLHYVVIERDEKYMASFDEIVPEFIEKMDEALAEIGFVFGEQWR,soluble
14,FGTFKSAITDYHGYEYKNHGYGLALTDTDLLGGSSGSLVFNQDKKISSIYSAATESDSVGYAQLLPVPKDV,not soluble
15,MGQMFGVACIDEQSGIVGQAWNNNSVRYISIDEDAVITIQSGPVVGKVAVSNDKTLAYGATINGANTVYVYKKSQAWVPSRLSDISSGTDVWAVALNGDNQWLYYVTANGRLGRIEVDNPTHNEILFEHNDFSGGPFAYIAYSAFEDCFYVTTDKNKILKVWVKEDGTHAYEQINQNNTGTTDGFLADEAKFQYLRGLTIDEDGNIFVCQGDNSHVIRKIAYDENMEKRYVTTVLGTSTVHGTDDGSPDIALFNGPQDISYDGNGGYWIAMRYEPALRKYSIELEHHHHHH,not soluble
16,MAAATATAAATSKKMTYEFTIDDDELSEDGKPSTDQATMCNIYKLNLPASASILSKQIAKSQAKRAKKEERHRRRVDLSTVREQDETRVSNSEENSQNASPRPMTASALVPPDEIPDSAPASHCGGGGGRSRIDSAPLGVKLQRQASLPEDQRKAEPMDEEEAELLAMLLGGIERNERKQMTLNGAGNQKIQEAPIVQAPQIPPSPGLPRLPPGAKVSEWLLERSSSPDNVSVISSVLLEDSGLLLNYQNSVGDEEEDVFFDAEEEKPDDVVNCVEHELQGKSLRVFVRDLSHVLGLSLNRNMAAMTQSLVRVEEETTTTDGPAANDSFRTGRSTSVSPRPTNEQFLRNTNGSATFNVKHSSTLARLQKLTPPNNGNTNPILSTTTTPLSSRTTRSVLRVHNVNSVPRPSVQNSTMSKSSVTANQTNRRAFSGVRMPDMNPTLQKSSPPVVTINPLTPSRPASVASSIGARSGVNGTMTASNLEGLQDLIQQQEDALRRAALNDQSTERKMSWQSDQDANNRQSTSVHSSLGSICSSKSIDGAHALSKMGTPTASRIPTPRSRLPTPRGSNLPKRVYVFFGNFGPNSR,not soluble
17,MSGPNGDLGMPVEAGAEGEEDGFGEAEYAAINSMLDQINSCLDHLEEKNDHLHARLQELLESNRQTRLEFQQQLGEAPSDASP,soluble
18,MGSDKIHHHHHHMIVPQEIYHPLYEDKEKFIILITGGRGSGKSFNASTFIERLTFELTPVEKIVHQILYTRYTMVSAGMSIIPEMMEKIELDGTTKYFKTTKTDIVNKMTKSRIMFRGIKTSSGNQTAKLKSIQGITTFVCDEAEEWTNEEEFDKIMLSIRKKGIQNRIIIIMNPCDSNHFIYKKYIENTHKLVEIDGVQVQISTHPNVLHIHTTYLDNLENLSPEFLKEVEDMKVNNPEKYAHVVIGRWADVAEGAVFKKWGIVDEFPAWAKKVAIGQDFGYTHDPSASIRCGIVDNALYLDEIDYRTGLLSSDIIKSLRPWGLKVIADSADPRLIQEIHNGGVKIYAVEKGAGSVNAGLDKMQGMEMYITKRSYNLQREYRKYVWAKDKDGNYINEPEDHDNHGIDAVRYYVLGELLGKIQKPKDLTGIFTH,not soluble
19,RAIGQIRSADGGRTVDVDLAQPLHDWRVLFNNLLPSHVLRGGDSDFSTVLADGIPASAGRYSFAGVDRQRGIVTLNRNDRFWGEKPATVENIKFREVTDIAQGRELLRTGQIKFLDITPTEVAREAFELMPNTQVRTTTTSLNLQLIANTHLTLEQRADLQSLIDVHTVARIAMGRSTDLGVGDQPYEPHADHLMSLGRPVRIGVDPSDPEAQMAARVLSDVLARKSVKTQLVETDTTDLIGSK,not soluble
20,MGSDKIHHHHHHMASPINESRIGYLYEAVRCGTVRAAADYLDVAPSAVSRQIALLEEELAIALVERNKRGVRPTEAGALLIEYFRQQRSHQGDLIAKLQEIRGLRRGTIAVVMGEGFASTMVSGPIKQYCEAYPEISITLDLCSTNEVMRRVSEDEAEIGLVFNPASDARIVSRVGSRQPMHAIVSPAFPLVGKVQSVTLRDMLPYPLALTHPEHGTRRLVDAAMLLEKVRLTPAITTNSATILKLFAKSNLGFTLLTPISIAAELAAGELVAIPVENRLLQSPEAHLVTRAGRQLSPAANRLLQRLTAQINQYAQYGSAS,not soluble
21,MGSDKIHHHHHHMARTTDRQRNTRSPRQARRQLNKLLRDPIVKPHNAAAVRIRLDEMMAILQHREYRPEQPSSTNQVNTHGQVQFDLARWYPEGGRLRYTLRPRGALLPIAFTVQDFGNHRKSLTRGLALAVAGAAHQLDQMKAANKLPLIMQPFSDWVHLLAIGLQNWLENGQVVFSLADLNGAYVLTSMPTAPATWLARLFGISLGNPDQSLTDLRRQRQEQADRLTTRLAAKFAIEEAPLVQAANDRAAKSIQLDAATMATLASDQAPLRSQKDVVDRLARGDYIVIDTEFVADRNQLDLTEISLLRVRHHQVDGAFDIFTQLPEDHHVMPFSVKITGITDDLLSQYGQPLPLAKAAVEQLLKHELVVGFALSNDLRALRAGLNVDITPVQAFDVAALARKTFGIGKKHTPSLQHYKEALGVDLPSHTALSDAQTTMALLEHLIWEGSPLITKDIGFEQRPPEHANDPEPYQKPDPSTS,not soluble
